Assay results taken from US20160264664A1 (Ablynx, published 2016).
Where two headings read alike, the source gives them in different places.

T1: mouse P2X7 (mouse, UniProt Q9Z1M0 1-595)
T1 sequence: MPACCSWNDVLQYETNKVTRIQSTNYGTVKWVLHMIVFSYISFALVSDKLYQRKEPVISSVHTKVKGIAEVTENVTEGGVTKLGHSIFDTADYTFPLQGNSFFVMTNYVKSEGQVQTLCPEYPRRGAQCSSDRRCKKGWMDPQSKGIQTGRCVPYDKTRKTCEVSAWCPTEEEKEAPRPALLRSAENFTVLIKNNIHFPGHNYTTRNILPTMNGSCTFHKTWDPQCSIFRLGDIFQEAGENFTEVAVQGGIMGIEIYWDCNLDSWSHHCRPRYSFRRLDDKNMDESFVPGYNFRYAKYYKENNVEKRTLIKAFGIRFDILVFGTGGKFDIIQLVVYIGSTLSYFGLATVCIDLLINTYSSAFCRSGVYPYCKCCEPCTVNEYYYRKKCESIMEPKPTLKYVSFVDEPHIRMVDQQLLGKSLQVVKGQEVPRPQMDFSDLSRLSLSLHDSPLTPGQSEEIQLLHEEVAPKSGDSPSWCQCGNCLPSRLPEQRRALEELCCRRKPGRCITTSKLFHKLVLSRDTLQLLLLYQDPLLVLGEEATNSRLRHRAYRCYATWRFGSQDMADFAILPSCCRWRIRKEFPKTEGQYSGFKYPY

T2: human P2X7 (human, UniProt Q99572 1-595)
T2 construct: on transfected Hek293 cells; also called hP2X7
T2 sequence: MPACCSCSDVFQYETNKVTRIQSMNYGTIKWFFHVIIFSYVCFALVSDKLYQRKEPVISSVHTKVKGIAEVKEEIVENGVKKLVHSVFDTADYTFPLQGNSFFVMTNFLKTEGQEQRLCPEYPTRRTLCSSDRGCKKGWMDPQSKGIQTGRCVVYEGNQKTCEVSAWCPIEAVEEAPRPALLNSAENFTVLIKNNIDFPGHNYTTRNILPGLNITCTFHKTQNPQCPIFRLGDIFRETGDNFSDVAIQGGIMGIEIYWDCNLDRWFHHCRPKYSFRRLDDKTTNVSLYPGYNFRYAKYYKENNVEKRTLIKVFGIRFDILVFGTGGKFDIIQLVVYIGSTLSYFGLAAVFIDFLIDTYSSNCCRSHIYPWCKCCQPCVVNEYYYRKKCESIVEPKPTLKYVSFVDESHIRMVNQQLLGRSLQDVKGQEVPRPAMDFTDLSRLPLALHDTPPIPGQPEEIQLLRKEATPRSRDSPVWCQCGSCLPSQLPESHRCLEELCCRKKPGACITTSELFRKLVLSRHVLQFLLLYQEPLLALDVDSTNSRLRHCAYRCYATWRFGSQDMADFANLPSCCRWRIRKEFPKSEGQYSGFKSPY

T3: human P2X4 (human, UniProt Q99571 1-388)
T3 construct: whole, on cells; also called hP2X4
T3 sequence (looked up): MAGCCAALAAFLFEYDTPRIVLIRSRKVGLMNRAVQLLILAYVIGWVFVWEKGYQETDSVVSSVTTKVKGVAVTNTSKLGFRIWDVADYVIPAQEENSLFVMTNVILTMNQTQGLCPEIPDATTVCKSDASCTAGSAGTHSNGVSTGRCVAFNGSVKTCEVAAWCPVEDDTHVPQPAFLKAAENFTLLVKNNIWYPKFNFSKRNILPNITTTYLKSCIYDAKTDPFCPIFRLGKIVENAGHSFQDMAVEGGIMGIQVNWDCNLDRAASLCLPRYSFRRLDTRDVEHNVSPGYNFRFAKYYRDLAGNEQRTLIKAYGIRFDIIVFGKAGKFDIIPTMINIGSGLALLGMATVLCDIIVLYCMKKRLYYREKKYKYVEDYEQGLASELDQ

B1: P2X7PMP13A7 (VHH)
VHH: EVQLVESGGGLVQPGESLRLSCTASRFMLDYYDIGWFRQAPGKEREGVSCRFTNDGSTAYADSVKGRFTISRDIVKHTVYLQMNSLQPEDTAVYYCAAGPLTKRRQCVPGDFSMDFWGEGTLVTVSS
notes: family 22; on phage or c-myc/His6-tagged in assays
B2: human chemokine receptor CXCR4 (receptor, UniProt P61073 1-352, looked up)
chain: MEGISIYTSDNYTEEMGSGDYDSMKEPCFREENANFNKIFLPTIYSIIFLTGIVGNGLVILVMGYQKKLRSMTDKYRLHLSVADLLFVITLPFWAVDAVANWYFGNFLCKAVHVIYTVNLYSSVLILAFISLDRYLAIVHATNSQRPRKLLAEKVVYVGVWIPALLLTIPDFIFANVSEADDRYICDRFYPNDLWVVVFQFQHIMVGLILPGIVILSCYCIIISKLSHSKGHQKRKALKTTVILILAFFACWLPYYIGISIDSFILLEIIKQGCEFENTVHKWISITEALAFFHCCLNPILYAFLGAKFKTSAQHALTSVSRGSSLKILSKGKRGGHSSVSTESESSSFHSS
notes: whole, on cells; on transfected HEK293 or camelid (CAKI) cells, or as membrane vesicles / membrane extracts of transfected HEK293 cells; also called hCXCR4

How the values were obtained:
[1] = target: T1, mouse P2X7; assay: cell-based or functional assay
[2] = target: T1, mouse P2X7; assay: cell-based or functional assay; remark: listed apart in the source
[3] = target: T1, mouse P2X7; assay: phage ELISA on fixed mP2X7-CHO vs untransfected CHO cells;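 note: phage culture supernatant diluted 10-fold, applied for 1 h to paraformaldehyde-fixed, BSA-blocked cells in 96-well plates, with bound phage read via HRP-linked anti-M13 antibody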
Procedure: Sub-confluent cells were rinsed with PBS and fixed using 4% paraformaldehyde in PBS for 10 minutes at RT. Fixed cells were washed three times with PBS, and blocked with 2% BSA in PBS for 2 hours. Following blocking, 10-fold diluted culture supernatant containing phage was added and incubated for 1 hour. Cell-bound phage was detected via mouse anti-M13-HRP-conjugate (GE Healthcare, Cat nr. E2886). Rat mAb Hano43 was used as positive control.

[4] = target: T1, mouse P2X7; assay: cell-based or functional assay; remark: listed apart in the source
[5] = target: T2, human P2X7; assay: flow cytometry, Nanobody pre-incubated with anti-Myc-FITC
[6] = target: T3, human P2X4; assay: as above
[7] = target: T1, mouse P2X7; assay: flow cytometry, purified Nanobody titrated on mP2X7-CHO cells
[8] = target: T4, Human CXCL12/SDF-1 alpha (human, UniProt P48061-2 22-89, biotinylated or 125I-labelled); assay: flow cytometry (Fluorokine kit) on CXCR4-transfected HEK293 but not parental HEK293 cells
T4 construct: also called CXCL12/SDF-la; SDF-1
T4 sequence (P48061 22-89 limits assumed): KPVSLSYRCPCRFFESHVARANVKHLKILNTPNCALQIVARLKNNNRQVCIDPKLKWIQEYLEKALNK
Source text: To verify the functional expression of human CXCR4, the endotoxin-free pVAX1-CXCR4 plasmid was transiently transfected into HEK293 cells using Eugene (Roche) to monitor in vitro extracellular expression via flow cytometry.

Row | Binder | IC50 (read off the curve) [1] [nM] | ATP IC50 by 2 uM NB (head prints 'mM'; ligand titration at fixed Nanobody, CD62L shedding, Yac-1 cells) [2] [mM] | IC50 (nM) against 20 uM NAD (CD62L shedding, Yac-1 cells) [2] [nM] | IC50 (nM) against 100 uM ATP (CD62L shedding, Yac-1 cells) [2] [nM] | Fold Cho P2X7/wt (phage ELISA) [3] [fold] | IC50 (read off the curve) [4] [nM] | binding result [5] | binding result [6] | EC50 [7] [nM] | binding result [8]
1 | B1 | ~4 | 0.565 | 11 | 6 | 25 | ~1 | no binding (tested: 147 nM) | no binding (tested: 147 nM) | 3.4 | –
2 | B2 | – | – | – | – | – | – | – | – | – | binds
